Reference: the supplement of paper PMC11875167

Assay: observed amide hydrogen exchange rate constant kobs (stretched exponential fit, FD-normalized) (s^-1); higher = faster H/D exchange (less protection)
Details: pH 3 (pH read); temperature: 20 °C; D2O: 88%
Summary of the method: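 Jurkat tryptic peptides (LysC/trypsin, carbamidomethylated cysteines) were labeled in 88% D2O, pHread 3, 20 °C, quenched with 0.23% formic acid at 13 times from 18 to 93,600 s, in processing triplicates. MS1 uptake (Q-Exactive HF, HDExaminer, no back-exchange correction) was normalized to full-deuteration controls (24 h, 37 °C). Curves were fitted to a stretched single exponential with β = 0.8. The observed exchange rate constant kobs is the fitted rate.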

Substance	observed amide hydrogen exchange rate constant kobs
SSGPTSLFAVTVAPPGAR	0.000757
SSTPEEVK	0.00152
STAGDTHLGGEDFDNR	0.00417
STGGAPTFNVTVTK	0.000782
STTTGHLIYK	0.00173
SVETIK	0.000994
SVPTSTVFYPSDGVATEK	0.000911
SVTEQGAELSNEER	0.00228
SVVLMSHLGRPDGVPMPDK	0.00138
SYDVPPPPMEPDHPFYSNISK	0.00134
SYELPDGQVITIGNER	0.000908
TAFDEAIAELDTLNEDSYK	0.00156
TAFQEALDAAGDK	0.00172
TAMSTPHVAEPAENEQDEQDENGAEASADLR	0.00244
TATESFASDPILYRPVAVALDTK	0.000776
TDTGEPMGR	0.00239
TENLLGSYFPK	0.00102
TEWLDGK	0.00181
TFFSFPAVVAPFK	0.000546
TFNTSTGGLLLPSDTK	0.00131
TFVNITPAEVGVLVGK	0.000609
TGTAEMSSILEER	0.00127
TIAPALVSK	0.000597
TIGGGDDSFNTFFSETGAGK	0.00246

Substance	observed amide hydrogen exchange rate constant kobs
TIIPLISQCTPK	0.000921
TITLEVEPSDTIENVK	0.001
TLAQLNPESSLFIIASK	0.00061
TLFPLIEAK	0.000566
TLGILGLGR	0.00116
TLHPDLGTDK	0.00356
TLLGDGPVVTDPK	0.000938
TLNDELEIIEGMK	0.000994
TLSDYNIQK	0.00134
TLTIVDTGIGMTK	0.000986
TLVDIAK	0.000674
TLVLLMGK	0.000552
TSFFQALGITTK	0.00062
TSRPENAIIYNNNEDFQVGQAK	0.00112
TVALWDLR	0.000702
TVHAGEVGSAEVVK	0.00152
TVTNAVVTVPAYFNDSQR	0.000806
TYSYLTPDLWK	0.000805
VAASNIVQMK	0.000933
VAGQDGSVVQFK	0.00116
VALVYGQMNEPPGAR	0.00112
VAPEEHPVLLTEAPLNPK	0.00104
VAQLEQVYIR	0.001
VAVATPAK	0.000839

Substance	observed amide hydrogen exchange rate constant kobs
VAVLGASGGIGQPLSLLLK	0.000683
VDFNVPMK	0.000994
VDNDENEHQLSLR	0.00288
VDQIIMAK	0.00126
VEGTEPTTAFNLFVGNLNFNK	0.000826
VEIIANDQGNR	0.00189
VELFFK	0.000868
VELLLK	0.000604
VESQLIGK	0.00139
VETGVLKPGMVVTFAPVNVTTEVK	0.000574
VEVQYK	0.00112
VFEGNRPTNSIVFTK	0.000712
VFIGNLNTLVVK	0.000428
VFLAQK	0.00073
VFSGLVSTGLK	0.00112
VHIEIGPDGR	0.00136
VHLVGIDIFTGK	0.00113
VIGSGCNLDSAR	0.00116
VIHDNFGIVEGLMTTVHAITATQK	0.00116
VIPELNGK	0.00159
VLATVTKPVGGDK	0.000932
VLDFEHFLPMLQTVAK	0.000855
VLEQLTGQTPVFSK	0.00081
VLITTDLLAR	0.000753

Substance	observed amide hydrogen exchange rate constant kobs
VLLPEYGGTK	0.00144
VLNTNIDGR	0.00162
VLQALEGLK	0.00101
VLQATVVAVGSGSK	0.000618
VLSSIEQK	0.00109
VLTVINQTQK	0.00141
VMLGETNPADSKPGTIR	0.00166
VMVQPINLIFR	0.000387
VNFAMNVGK	0.000903
VPPPPPIAR	0.000659
VPSLVGSFIR	0.000779
VRVELSNGEK	0.00127
VSFELFADK	0.00165
VSHLLGINVTDFTR	0.00119
VSHVSTGGGASLELLEGK	0.000818
VTIAQGGVLPNIQAVLLPK	0.000495
VTLATLK	0.000759
VTLDWAK	0.00095
VTLTSEEEAR	0.00196
VTVITK	0.000489
VVDLLAPYAK	0.000767
VVLIGGKPDR	0.00162
VVSSIEQK	0.00104
VVVSGLPPSGSWQDLK	0.000996

Substance	observed amide hydrogen exchange rate constant kobs
VYALPEDLVEVNPK	0.0011
VYVGNLGNNGNK	0.00211
WTGMIIGPPR	0.000901
YAFVNWINK	0.00131
YAISMAR	0.00127
YALYDATYETK	0.00134
YAVLYQPLFDK	0.000677
YHTINGHNAEVR	0.00291
YHTSQSGDEMTSLSEYVSR	0.00202
YIDQEELNK	0.00207
YISPDQLADLYK	0.000916
YLAEFATGNDRK	0.0022
YLIPNATQPESK	0.000945
YLNFFTK	0.00107
YLPELMAEK	0.000924
YLTVAAVFR	0.000527
YNQLLR	0.000842
YPALHKPENQDIDWGALEGETR	0.0022
YPIEHGIITNWDDMEK	0.00172
YPSPFFVFGEK	0.000978
YTPSGQAGAAASESLFVSNHAY	0.00149
YYVTIIDAPGHR	0.00127
